From article PMC7098639

What was measured:
Assay in all cases: FRET or BRET; biosensor lysate at three concentrations (200,000, 400,000 and 800,000 RLU) incubated with VEGF ranges adjusted for each biosensor; Delta eBRET2 ratio against the biosensor without VEGF
[1] = target: eBRET2 VEGF biosensor Re09 (Rluc8 - VEGF receptor 1 domain 2 - VEGF receptor 2 domain 3 - GFP2) (human)
[2] = target: eBRET2 VEGF biosensor Re02 (Rluc8 - VEGF receptor 1 domain 3 - GFP2) (human)
[3] = target: eBRET2 VEGF biosensor Re07 (Rluc8 - VEGF receptor 2 domains 2 and 3 - GFP2) (human)
eBRET2 VEGF biosensor Re07 (Rluc8 - VEGF receptor 2 domains 2 and 3 - GFP2) (human), sequence (P35968 20-764): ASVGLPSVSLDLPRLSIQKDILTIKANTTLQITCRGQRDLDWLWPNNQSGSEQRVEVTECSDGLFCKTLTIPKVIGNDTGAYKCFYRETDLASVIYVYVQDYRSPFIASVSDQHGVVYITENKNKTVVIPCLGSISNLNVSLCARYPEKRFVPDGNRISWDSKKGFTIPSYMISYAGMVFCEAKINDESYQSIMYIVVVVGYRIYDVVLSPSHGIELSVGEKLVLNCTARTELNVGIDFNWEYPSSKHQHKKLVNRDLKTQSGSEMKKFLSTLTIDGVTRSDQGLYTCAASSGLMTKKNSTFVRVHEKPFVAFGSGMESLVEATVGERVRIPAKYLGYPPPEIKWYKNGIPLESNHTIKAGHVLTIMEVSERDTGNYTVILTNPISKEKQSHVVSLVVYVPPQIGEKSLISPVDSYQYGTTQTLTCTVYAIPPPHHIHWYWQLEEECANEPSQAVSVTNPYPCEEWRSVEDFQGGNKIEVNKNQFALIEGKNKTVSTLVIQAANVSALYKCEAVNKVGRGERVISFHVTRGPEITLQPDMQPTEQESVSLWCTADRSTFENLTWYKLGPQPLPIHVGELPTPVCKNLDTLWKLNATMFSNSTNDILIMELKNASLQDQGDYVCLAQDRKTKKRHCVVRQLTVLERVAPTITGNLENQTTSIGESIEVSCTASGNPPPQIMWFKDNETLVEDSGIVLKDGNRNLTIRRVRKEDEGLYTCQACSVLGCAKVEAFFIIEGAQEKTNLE

[4] = target: eBRET2 VEGF biosensor Re06 (Rluc8 - VEGF receptor 2 domain 3 - GFP2) (human)
eBRET2 VEGF biosensor Re06 (Rluc8 - VEGF receptor 2 domain 3 - GFP2) (human), sequence (P35968 20-764): as above

eBRET2 VEGF biosensor Re02 (Rluc8 - VEGF receptor 1 domain 3 - GFP2) (human), sequence (P17948 27-758): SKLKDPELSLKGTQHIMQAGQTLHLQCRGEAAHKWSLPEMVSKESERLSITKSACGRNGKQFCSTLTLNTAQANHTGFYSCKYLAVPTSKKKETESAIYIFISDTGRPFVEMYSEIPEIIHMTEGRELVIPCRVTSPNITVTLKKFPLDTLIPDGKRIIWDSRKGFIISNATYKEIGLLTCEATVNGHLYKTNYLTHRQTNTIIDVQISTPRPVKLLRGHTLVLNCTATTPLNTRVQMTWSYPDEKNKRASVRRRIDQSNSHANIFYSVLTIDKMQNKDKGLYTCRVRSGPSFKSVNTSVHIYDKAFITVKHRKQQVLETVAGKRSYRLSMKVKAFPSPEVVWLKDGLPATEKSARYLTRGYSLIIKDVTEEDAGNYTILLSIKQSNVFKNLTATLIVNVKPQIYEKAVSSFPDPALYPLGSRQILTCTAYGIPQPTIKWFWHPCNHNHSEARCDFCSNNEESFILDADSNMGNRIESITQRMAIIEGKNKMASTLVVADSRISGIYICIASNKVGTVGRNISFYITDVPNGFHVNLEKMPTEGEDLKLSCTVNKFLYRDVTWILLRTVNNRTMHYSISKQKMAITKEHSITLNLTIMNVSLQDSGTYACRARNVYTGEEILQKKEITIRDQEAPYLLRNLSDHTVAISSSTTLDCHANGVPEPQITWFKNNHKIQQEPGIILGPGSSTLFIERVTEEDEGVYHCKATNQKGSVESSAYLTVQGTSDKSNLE

How did the maximum Delta eBRET2 ratio (ΔBR) at 1 μg/ml VEGF, biosensor at 200,000 RLU [1] turn out when “recombinant human VEGF (Active Max VEGF-A165) (ligand)” was run?
Its maximum Delta eBRET2 ratio (ΔBR) at 1 μg/ml VEGF, biosensor at 200,000 RLU is 62.6 mBU.

And the maximum Delta eBRET2 ratio (ΔBR) at 1 μg/ml VEGF, biosensor at 800,000 RLU [1]?
Its maximum Delta eBRET2 ratio (ΔBR) at 1 μg/ml VEGF, biosensor at 800,000 RLU is 100 mBU.

What about the Delta eBRET2 ratio (ΔBR) at 0.1 ng/ml VEGF, biosensor at 200,000 RLU [2] of the same substance?
Its Delta eBRET2 ratio (ΔBR) at 0.1 ng/ml VEGF, biosensor at 200,000 RLU is 2.95 mBU.

And the Delta eBRET2 ratio (ΔBR) at 100 ng/ml VEGF, biosensor at 200,000 RLU [2]?
Its Delta eBRET2 ratio (ΔBR) at 100 ng/ml VEGF, biosensor at 200,000 RLU is 42.5 mBU.

And the maximum Delta eBRET2 ratio (ΔBR) at 4 ng/ml VEGF, biosensor at 400,000 RLU [3]?
The maximum Delta eBRET2 ratio (ΔBR) at 4 ng/ml VEGF, biosensor at 400,000 RLU was 27.7 mBU.

And the Delta eBRET2 ratio (ΔBR) at 1000 pg/ml VEGF, biosensor at 200,000 RLU [4]?
Its Delta eBRET2 ratio (ΔBR) at 1000 pg/ml VEGF, biosensor at 200,000 RLU is 41 mBU.

What about the maximum Delta eBRET2 ratio (ΔBR) at 1000 pg/ml VEGF, biosensor at 400,000 RLU [4] of the same substance?
The maximum Delta eBRET2 ratio (ΔBR) at 1000 pg/ml VEGF, biosensor at 400,000 RLU was 106 mBU.
